One block for each binder: values may come before it.
Assays:
Assay in all cases: cell-based or functional assay
[1] = target: DII4-His (C-terminal His-tagged human DII4, amino acid 27-524) (human) (UniProt Q9NR61)
[2] = target: VEGF (used to stimulate HUVEC cells) (UniProt P15692)
VEGF = VEGF (UniProt P15692)
VEGF, sequence (P15692 other isoform, or with tags, fused parts or gaps limits assumed): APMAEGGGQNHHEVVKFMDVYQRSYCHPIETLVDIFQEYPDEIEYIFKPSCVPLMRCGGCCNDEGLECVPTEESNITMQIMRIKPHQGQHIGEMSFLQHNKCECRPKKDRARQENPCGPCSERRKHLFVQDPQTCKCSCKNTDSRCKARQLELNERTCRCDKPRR

VEGF (used to stimulate HUVEC cells), sequence (P15692 other isoform, or with tags, fused parts or gaps limits assumed): as above
DII4-His (C-terminal His-tagged human DII4, amino acid 27-524) (human), sequence (Q9NR61 25-522): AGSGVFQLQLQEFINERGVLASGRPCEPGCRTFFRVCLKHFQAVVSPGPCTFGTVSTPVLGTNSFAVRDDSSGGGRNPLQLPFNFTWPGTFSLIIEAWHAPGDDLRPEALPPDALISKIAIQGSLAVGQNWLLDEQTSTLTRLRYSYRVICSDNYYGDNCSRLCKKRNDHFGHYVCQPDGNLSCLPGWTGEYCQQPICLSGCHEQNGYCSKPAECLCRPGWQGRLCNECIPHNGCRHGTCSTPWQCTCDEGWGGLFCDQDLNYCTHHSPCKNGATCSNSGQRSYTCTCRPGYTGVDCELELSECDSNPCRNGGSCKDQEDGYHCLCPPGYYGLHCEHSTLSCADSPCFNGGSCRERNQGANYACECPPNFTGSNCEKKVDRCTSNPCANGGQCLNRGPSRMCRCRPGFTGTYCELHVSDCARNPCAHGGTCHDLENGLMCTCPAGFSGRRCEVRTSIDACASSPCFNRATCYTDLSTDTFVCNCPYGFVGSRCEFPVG

IC50 (nM), DII4-mediated HUVEC proliferation assay, +HSA [1]: 3.52 nM
IC50 (nM), DII4-mediated HUVEC proliferation assay, -HSA [1]: 2.32 nM
B1: DLLBII129B05 (VHH, not shown: small tags and cut ends)
VHH: EVQLVESGGGLVQAGGSLRLSCAASGRTFSSYAMAWYRQAPGKEREYVAAIRWSGGTAYYADSVQGRFTISRDNAKNTVYLQMNSLKPEDTAVYYCANRAPDTRLAPYEYDHWGQGTQVTVSS

% inhibition, VEGF HUVEC proliferation assay [2]: 73%
IC50, VEGF HUVEC proliferation assay [2]: 4.29 nM
B2: VEGFBII23A06 (VHH, not shown: small tags and cut ends)
VHH: EVQLVESGGGLVQPGDSLKLSCAFSGRTFSSYSMGWFRQAQGKEREFVVAISSGGFIYDAVSLEGRFTISRDNTKNTVYLQTPSLKPEDTAVYYCAASRAYGSSRLRLADTYDYWGQGTQVTVSS

% inhibition, VEGF HUVEC Erk phosphorylation assay, +HSA (VEGF): 93%
% inhibition, VEGF HUVEC Erk phosphorylation assay, -HSA (VEGF): 91%
IC50 (nM), VEGF HUVEC Erk phosphorylation assay, +HSA (VEGF): 0.6 nM
IC50 (nM), VEGF HUVEC Erk phosphorylation assay, -HSA (VEGF): 0.69 nM
B3: VEGFBII23B04 (VHH, not shown: small tags and cut ends)
VHH: EVQLVESGGGLVQTGDSLRLSCEVSGRTFSSYSMGWFRQAQGKEREFVVAISKGGYKYDSVSLEGRFTISKDNAKNTVYLQINSLKPEDTAVYYCASSRAYGSSRLRLADTYEYWGQGTQVTVSS

From patent US20140120095A1
